Measurements from publication PMC10786891, “Massively parallel profiling of RNA-targeting CRISPR-Cas13d”.
Substitutions are numbered along the chain they refer to. Numbers in names are those of the source.

T1: EsCas13d, nuclease-dead (Eubacterium siraeum, UniProt B0MS50, R295A;H300A;R849A;H854A)
T1 sequence: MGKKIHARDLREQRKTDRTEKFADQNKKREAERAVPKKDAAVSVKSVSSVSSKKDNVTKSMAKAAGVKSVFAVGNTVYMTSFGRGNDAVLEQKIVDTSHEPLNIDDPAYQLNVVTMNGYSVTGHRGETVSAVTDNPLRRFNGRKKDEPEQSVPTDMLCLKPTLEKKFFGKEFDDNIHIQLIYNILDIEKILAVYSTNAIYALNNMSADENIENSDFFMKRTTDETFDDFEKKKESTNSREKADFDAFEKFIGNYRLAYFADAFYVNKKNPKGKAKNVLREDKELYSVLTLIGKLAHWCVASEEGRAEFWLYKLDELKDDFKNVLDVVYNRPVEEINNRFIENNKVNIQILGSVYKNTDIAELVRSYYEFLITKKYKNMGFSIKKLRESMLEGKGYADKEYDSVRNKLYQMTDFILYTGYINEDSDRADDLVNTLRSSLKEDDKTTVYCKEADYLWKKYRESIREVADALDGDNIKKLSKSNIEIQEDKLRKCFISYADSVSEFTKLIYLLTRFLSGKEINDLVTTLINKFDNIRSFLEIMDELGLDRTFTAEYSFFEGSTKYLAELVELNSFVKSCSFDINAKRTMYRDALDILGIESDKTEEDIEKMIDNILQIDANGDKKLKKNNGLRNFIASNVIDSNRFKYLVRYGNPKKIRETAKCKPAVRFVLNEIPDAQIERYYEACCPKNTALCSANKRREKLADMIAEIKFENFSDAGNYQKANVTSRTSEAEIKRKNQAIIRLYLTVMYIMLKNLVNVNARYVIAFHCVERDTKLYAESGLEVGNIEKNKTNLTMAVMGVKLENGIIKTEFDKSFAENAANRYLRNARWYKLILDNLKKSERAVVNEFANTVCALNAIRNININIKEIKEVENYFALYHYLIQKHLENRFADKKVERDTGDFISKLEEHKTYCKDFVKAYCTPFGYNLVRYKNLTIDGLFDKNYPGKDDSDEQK

B1: target 1 A1U,G13A (mixed)
RNA 1: CACCCGUGCAAAAAUGCAGGGGUCUAAAACUGAGCGGAUAACCUCUCUAUGG
RNA 2: GGGAAUGGAUCCACAUCUACGAAUUCGUACCAUAGAGAAGUUAUCCGCUCUCCGAGAUCGGAAGAGCACACGU
B2: target 1 insU 3' of 22,insG 3' of 14 (mixed)
RNA 1: B1 RNA 1
RNA 2: GGGAAUGGAUCCACAUCUACGAAUUCGUACUCAUAGAGAGGGUUAUCCGCUCACCGAGAUCGGAAGAGCACACGU
B3: target 1 insA 3' of 13,insA 3' of 11 (mixed)
RNA 1: B1 RNA 1
RNA 2: GGGAAUGGAUCCACAUCUACGAAUUCGUACCAUAGAGAGAGUAUAUCCGCUCACCGAGAUCGGAAGAGCACACGU
B4: target 1 G5C,A9U (mixed)
RNA 1: B1 RNA 1
RNA 2: B1 RNA 2 with A39G, A43U, G47C, U51A
B5: target 2 MT 5'PFS AAA 3'PFS UCU (mixed)
RNA 1: CACCCGUGCAAAAUUGCAGGGGUCUAAAACCUUCUCCAAAUUGUUUCAUCCU
RNA 2: GGGAAUGGAUCCACAUCUACGAAUUCAAAAGGAUGAAACAAUUUGGAGAAGUCUAGAUCGGAAGAGCACACGU
B6: target 2 MT 5'PFS AAA 3'PFS UCG (mixed)
RNA 1: B5 RNA 1
RNA 2: B5 RNA 2 with U54G
B7: target 2 MT 5'PFS CAU 3'PFS ACC (mixed)
RNA 1: B5 RNA 1
RNA 2: B5 RNA 2 with A27C, A29U, U52A, U54C
B8: target 2 MT 5'PFS AGA 3'PFS AUC (mixed)
RNA 1: B5 RNA 1
RNA 2: B5 RNA 2 with A28G, U52A, C53U, U54C
B9: target 2 MT 5'PFS UCA 3'PFS CUC (mixed)
RNA 1: B5 RNA 1
RNA 2: B5 RNA 2 with A27U, A28C, U52C, C53U, U54C
B10: target 2 MT 5'PFS AUC 3'PFS AAC (mixed)
RNA 1: B5 RNA 1
RNA 2: B5 RNA 2 with A28U, A29C, U52A, C53A, U54C
B11: target 2 MT 5'PFS CAU 3'PFS UCG (mixed)
RNA 1: B5 RNA 1
RNA 2: B5 RNA 2 with A27C, A29U, U54G
B12: target 2 MT 5'PFS UUA 3'PFS AUG (mixed)
RNA 1: B5 RNA 1
RNA 2: B5 RNA 2 with A27U, A28U, U52A, C53U, U54G
B13: target 2 MT 5'PFS UAU 3'PFS UUG (mixed)
RNA 1: B5 RNA 1
RNA 2: B5 RNA 2 with A27U, A29U, C53U, U54G
B14: target 2 MT 5'PFS UAU 3'PFS CAG (mixed)
RNA 1: B5 RNA 1
RNA 2: B5 RNA 2 with A27U, A29U, U52C, C53A, U54G
B15: target 2 MT 5'PFS GCA 3'PFS UAA (mixed)
RNA 1: B5 RNA 1
RNA 2: B5 RNA 2 with A27G, A28C, C53A, U54A
B16: target 2 MT 5'PFS CAU 3'PFS ACA (mixed)
RNA 1: B5 RNA 1
RNA 2: B5 RNA 2 with A27C, A29U, U52A, U54A
B17: target 2 MT 5'PFS CUG 3'PFS AUC (mixed)
RNA 1: B5 RNA 1
RNA 2: B5 RNA 2 with A27C, A28U, A29G, U52A, C53U, U54C
B18: target 2 MT 5'PFS GAC 3'PFS UAU (mixed)
RNA 1: B5 RNA 1
RNA 2: B5 RNA 2 with A27G, A29C, C53A
B19: target 2 MT 5'PFS UUA 3'PFS AUC (mixed)
RNA 1: B5 RNA 1
RNA 2: B5 RNA 2 with A27U, A28U, U52A, C53U, U54C
B20: target 2 MT 5'PFS GAC 3'PFS UAC (mixed)
RNA 1: B5 RNA 1
RNA 2: B5 RNA 2 with A27G, A29C, C53A, U54C
B21: target 2 MT 5'PFS GCA 3'PFS UAC (mixed)
RNA 1: B5 RNA 1
RNA 2: B5 RNA 2 with A27G, A28C, C53A, U54C
B22: target 2 MT 5'PFS CAU 3'PFS UCC (mixed)
RNA 1: B5 RNA 1
RNA 2: B5 RNA 2 with A27C, A29U, U54C
B23: target 2 MT 5'PFS UAU 3'PFS UUU (mixed)
RNA 1: B5 RNA 1
RNA 2: B5 RNA 2 with A27U, A29U, C53U
B24: target 2 MT 5'PFS GCA 3'PFS UAU (mixed)
RNA 1: B5 RNA 1
RNA 2: B5 RNA 2 with A27G, A28C, C53A
B25: target 2 MT 5'PFS GAC 3'PFS UAG (mixed)
RNA 1: B5 RNA 1
RNA 2: B5 RNA 2 with A27G, A29C, C53A, U54G
B26: target 2 MT 5'PFS CAU 3'PFS UCA (mixed)
RNA 1: B5 RNA 1
RNA 2: B5 RNA 2 with A27C, A29U, U54A
B27: target 2 MT 5'PFS AAA 3'PFS UCC (mixed)
RNA 1: B5 RNA 1
RNA 2: B5 RNA 2 with U54C
B28: target 2 MT 5'PFS UAU 3'PFS CAC (mixed)
RNA 1: B5 RNA 1
RNA 2: B5 RNA 2 with A27U, A29U, U52C, C53A, U54C
B29: target 2 MT 5'PFS GAC 3'PFS UAA (mixed)
RNA 1: B5 RNA 1
RNA 2: B5 RNA 2 with A27G, A29C, C53A, U54A
B30: target 2 MT 5'PFS UAU 3'PFS UUA (mixed)
RNA 1: B5 RNA 1
RNA 2: B5 RNA 2 with A27U, A29U, C53U, U54A
B31: target 2 MT 5'PFS UCA 3'PFS CUA (mixed)
RNA 1: B5 RNA 1
RNA 2: B5 RNA 2 with A27U, A28C, U52C, C53U, U54A
B32: target 2 MT 5'PFS GCA 3'PFS UAG (mixed)
RNA 1: B5 RNA 1
RNA 2: B5 RNA 2 with A27G, A28C, C53A, U54G
B33: target 2 MT 5'PFS UCA 3'PFS CUG (mixed)
RNA 1: B5 RNA 1
RNA 2: B5 RNA 2 with A27U, A28C, U52C, C53U, U54G
B34: target 2 MT 5'PFS AGA 3'PFS AUG (mixed)
RNA 1: B5 RNA 1
RNA 2: B5 RNA 2 with A28G, U52A, C53U, U54G
B35: target 2 MT 5'PFS UUA 3'PFS AUA (mixed)
RNA 1: B5 RNA 1
RNA 2: B5 RNA 2 with A27U, A28U, U52A, C53U, U54A
B36: target 2 MT 5'PFS GCG 3'PFS CGC (mixed)
RNA 1: B5 RNA 1
RNA 2: B5 RNA 2 with A27G, A28C, A29G, U52C, C53G, U54C
B37: target 2 MT 5'PFS UAU 3'PFS CAA (mixed)
RNA 1: B5 RNA 1
RNA 2: B5 RNA 2 with A27U, A29U, U52C, C53A, U54A

Biological target: T1, EsCas13d, nuclease-dead
Assay: crRNA (strand 1, pre-loaded); Mg2+; 40 mM Tris-HCl pH 7.5, 150 mM NaCl, 6 mM MgCl2, 1 mM DTT, 0.1% Tween-20, 0.2 mg/ml BSA; 25 C; 10 min per concentration, then washed
Conditions: tags: His6-TwinStrep-SUMO cleaved; N-terminal SNAP kept (SNAP-Surface 488); label: 3' end held by stalled T7 RNA polymerase

Binder	Kd [nM]
B1	6.4 ± 0.5
B2	68 ± 22
B3	3.87 ± 0.21
B4	11.8 ± 0.6
B5	15 ± 5
B6	4.9 ± 1.1
B7	5.9 ± 0.7
B8	9.6 ± 2.3
B9	8.7 ± 2.2
B10	25 ± 11
B11	3.8 ± 0.4
B12	50 ± 13
B13	23.1 ± 3.1
B14	34 ± 7
B15	6.4 ± 1.3
B16	6 ± 1.2
B17	2.3 ± 0.4
B18	10.8 ± 2.4
B19	31 ± 5

Binder	Kd [nM]
B20	27 ± 8
B21	12.3 ± 2.6
B22	8.1 ± 0.7
B23	48 ± 11
B24	10.7 ± 1.5
B25	7.5 ± 1
B26	6.4 ± 1.5
B27	7.3 ± 1.4
B28	47 ± 9
B29	9.5 ± 1.8
B30	33 ± 9
B31	6.3 ± 1.7
B32	12.3 ± 2.1
B33	7.3 ± 1.1
B34	8.2 ± 1.3
B35	27 ± 6
B36	12 ± 0.7
B37	14.2 ± 1.5
